Experimental findings from US20250376536A1 (Bristol-Myers Squibb, published 2025) are described below.

One may read the Kd as the concentration at which binding is half-saturated. Low readings indicate a tighter complex, high ones a looser complex. Usually koff stands for a measure of how fast the partners let go of each other. A high value points to a short-lived complex. Usually kon stands for the second-order rate constant of association. A low value points to slow association.

In assay [1] the target is T1, human CD40 protein (human, UniProt P25942 21-193).
T1 construct: Protein used in SPR
T1 sequence (P25942 21-193 limits assumed): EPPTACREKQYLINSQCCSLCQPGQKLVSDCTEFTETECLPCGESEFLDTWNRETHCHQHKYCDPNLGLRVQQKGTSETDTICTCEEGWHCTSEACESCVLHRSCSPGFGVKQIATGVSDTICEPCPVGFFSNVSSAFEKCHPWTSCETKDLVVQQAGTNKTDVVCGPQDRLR
The assay is described as follows: SPR. Here is the method: (§1) CD40.9H3×FAP.LP62 and an analog of RO7300490 (see SEQ ID NOs: 39-42) binding to human and cynomolgus (cyno) CD40 and FAP was evaluated by surface plasmon resonance (SPR) using human and cyno CD40 and FAP proteins. […] The rates of association and dissociation of CD40.9H3×FAP.LP62 and the analog of RO7300490 to human CD40 and FAP are summarized in Table 2.
(In general: In SPR one partner is held on a chip, and binding of the other changes the refractive index at the surface.)

Assay [2] has as its target T2, human FAP protein (human, UniProt Q12884 26-760).
T2 sequence: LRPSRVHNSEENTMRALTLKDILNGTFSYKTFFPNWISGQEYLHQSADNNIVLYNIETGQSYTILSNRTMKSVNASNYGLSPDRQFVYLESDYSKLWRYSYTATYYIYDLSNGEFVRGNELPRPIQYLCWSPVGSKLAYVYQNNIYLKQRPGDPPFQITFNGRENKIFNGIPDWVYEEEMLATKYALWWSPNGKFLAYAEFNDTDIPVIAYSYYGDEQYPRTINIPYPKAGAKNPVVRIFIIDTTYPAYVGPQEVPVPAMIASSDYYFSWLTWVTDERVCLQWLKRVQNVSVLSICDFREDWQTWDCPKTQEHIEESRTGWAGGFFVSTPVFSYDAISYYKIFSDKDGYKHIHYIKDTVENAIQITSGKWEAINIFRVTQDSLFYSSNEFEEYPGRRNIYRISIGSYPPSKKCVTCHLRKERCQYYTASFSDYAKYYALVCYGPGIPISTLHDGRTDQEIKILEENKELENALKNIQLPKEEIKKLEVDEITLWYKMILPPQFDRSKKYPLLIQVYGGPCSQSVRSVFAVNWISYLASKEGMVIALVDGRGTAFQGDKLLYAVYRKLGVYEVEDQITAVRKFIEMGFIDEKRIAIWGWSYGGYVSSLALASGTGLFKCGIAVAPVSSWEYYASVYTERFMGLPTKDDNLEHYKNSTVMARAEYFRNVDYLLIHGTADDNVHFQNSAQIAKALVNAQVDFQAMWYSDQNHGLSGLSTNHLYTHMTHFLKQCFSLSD
Put plainly: SPR. The protocol:
as §1

In assay [3] the target is T3, soluble FAP (human, UniProt Q12884 26-760, limits assumed).
T3 sequence: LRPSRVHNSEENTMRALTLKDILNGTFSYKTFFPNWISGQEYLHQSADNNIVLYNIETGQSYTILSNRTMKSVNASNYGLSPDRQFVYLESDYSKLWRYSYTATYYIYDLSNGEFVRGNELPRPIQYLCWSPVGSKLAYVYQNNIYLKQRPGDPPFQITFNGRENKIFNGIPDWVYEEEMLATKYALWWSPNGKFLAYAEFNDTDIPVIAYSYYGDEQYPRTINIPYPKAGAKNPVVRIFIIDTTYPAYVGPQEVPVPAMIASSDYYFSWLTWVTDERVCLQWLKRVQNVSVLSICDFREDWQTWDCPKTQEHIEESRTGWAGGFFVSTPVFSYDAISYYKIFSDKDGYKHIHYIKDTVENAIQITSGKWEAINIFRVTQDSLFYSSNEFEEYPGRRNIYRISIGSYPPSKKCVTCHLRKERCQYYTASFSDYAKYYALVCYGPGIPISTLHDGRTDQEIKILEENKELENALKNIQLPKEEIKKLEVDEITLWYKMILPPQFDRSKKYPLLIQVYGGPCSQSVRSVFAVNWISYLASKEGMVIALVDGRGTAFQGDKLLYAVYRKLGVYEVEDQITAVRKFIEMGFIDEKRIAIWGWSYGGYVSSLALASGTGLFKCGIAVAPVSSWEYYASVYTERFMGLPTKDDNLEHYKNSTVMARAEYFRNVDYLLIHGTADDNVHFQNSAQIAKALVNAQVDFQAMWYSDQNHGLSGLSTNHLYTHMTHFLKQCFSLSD
The assay is described as follows: cell-based or functional assay.

In assay [4] the target is T4, FcγRI (CD64) (UniProt P12314 16-288, limits assumed).
T4 construct: also called FcγR1 (CD64); FcγR1
T4 sequence (P12314 16-288 limits assumed): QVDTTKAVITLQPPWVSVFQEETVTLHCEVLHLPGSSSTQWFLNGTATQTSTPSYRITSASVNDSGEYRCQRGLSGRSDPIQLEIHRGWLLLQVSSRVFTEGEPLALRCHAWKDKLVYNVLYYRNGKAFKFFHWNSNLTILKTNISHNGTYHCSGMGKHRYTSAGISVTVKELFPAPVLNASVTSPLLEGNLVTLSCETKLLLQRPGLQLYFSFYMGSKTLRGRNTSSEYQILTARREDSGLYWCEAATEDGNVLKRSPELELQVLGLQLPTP
The assay is described as follows: SPR, Biacore S200, antibody captured on Protein A chip, FcγR as analyte. The protocol:
Binding of CD40.9H3×FAP.LP62 and the analog of RO7300490 to various Fc gamma receptors (FcγR1 (CD64), FcγRIIIA (CD16a), FcγRIIIB (CD16b), FcγRIIA (CD32a), FcγRIIB (CD32b)) was determined in an analyte/capture assay in vitro. Briefly, an SPR assay was performed using a Biacore S200 with a Biacore Series S Protein A chip (Cytiva). All antibodies were prepared at 4.0 μg/ml in 1×HBS-EP+ running buffer (Cytiva) and captured onto flow cells 2, 3, and 4 through a 60 second contact time at 10 μl/min. An analyte series of the FcγRs (BMS In-House Produced) were prepared at 10,000 nM in 1×HBS-EP+ with eight, three-fold dilutions. Kinetic measurements were conducted with a 120 second association followed by a 120 second dissociation at 30 μl/min. Surface regeneration was preformed by 60 second contact time of 50 mM Glycine pH 1.5 solution (Cytiva) at 30 μl/min. Data was processed in Biacore Insight Evaluation Version 5 (Cytiva). Sensorgrams were double referenced and globally fit to a 1:1 Langmuir model were applicable. Where 1:1 model was not sufficient to describe the interaction (fast-on and fast-off rates), steady state equilibrium fitting was used to determine the equilibrium constant.

Assay [5] has as its target T3, soluble FAP. The assay is described as follows: cell-based or functional assay. The source holds these as a separate data set.
Assay [6] has as its target T5, human FAP on cells (human, UniProt Q12884 1-760).
T5 sequence: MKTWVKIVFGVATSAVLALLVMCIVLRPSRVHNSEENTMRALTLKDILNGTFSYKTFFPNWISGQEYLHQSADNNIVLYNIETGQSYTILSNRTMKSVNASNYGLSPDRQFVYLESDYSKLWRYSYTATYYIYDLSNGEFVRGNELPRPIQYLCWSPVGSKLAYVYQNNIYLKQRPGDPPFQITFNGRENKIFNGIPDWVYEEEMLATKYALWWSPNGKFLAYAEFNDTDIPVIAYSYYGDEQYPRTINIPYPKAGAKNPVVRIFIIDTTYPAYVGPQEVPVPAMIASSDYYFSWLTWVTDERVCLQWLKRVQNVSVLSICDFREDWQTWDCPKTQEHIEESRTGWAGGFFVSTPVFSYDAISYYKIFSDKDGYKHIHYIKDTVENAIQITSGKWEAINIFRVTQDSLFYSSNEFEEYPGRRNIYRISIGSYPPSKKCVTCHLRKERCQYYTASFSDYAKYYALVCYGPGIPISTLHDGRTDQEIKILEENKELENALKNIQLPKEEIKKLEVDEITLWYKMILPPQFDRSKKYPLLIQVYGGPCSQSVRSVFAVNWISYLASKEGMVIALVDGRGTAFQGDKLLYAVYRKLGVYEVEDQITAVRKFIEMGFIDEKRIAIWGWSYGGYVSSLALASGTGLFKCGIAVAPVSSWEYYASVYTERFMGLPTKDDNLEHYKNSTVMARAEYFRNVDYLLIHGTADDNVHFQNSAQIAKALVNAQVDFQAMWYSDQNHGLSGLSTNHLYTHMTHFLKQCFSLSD
The assay is described as follows: cell-based or functional assay.

B1: analog of RO7300490 (bispecific antibody, human IgG1, kappa, L234A L235A)
heavy 1: not shown
heavy 2: QVQLVQSGAEVKKPGASVKVSCKASGYSFTGYYIHWVRQAPGQSLEWMGRVIPNAGGTSYNQKFKGRVTLTVDKSISTAYMELSRLRSDDTAVYYCAREGIYWWGQGTTVTVSSASTKGPSVFPLAPSSKSTSGGTAALGCLVEDYFPEPVTVSWNSGALTSGVHTFPAVLQSSGLYSLSSVVTVPSSSLGTQTYICNVNHKPSNTKVDEKVEPKSCDKTHTCPPCPAPEAAGGPSVFLFPPKPKDTLMISRTPEVTCVVVDVSHEDPEVKFNWYVDGVEVHNAKTKPREEQYNSTYRVVSVLTVLHQDWLNGKEYKCKVSNKALGAPIEKTISKAKGQPREPQVCTLPPSRDELTKNQVSLSCAVKGFYPSDIAVEWESNGQPENNYKTTPPVLDSDGSFFLVSKLTVDKSRWQQGNVFSCSVMHEALHNHYTQKSLSLSPG
light 1: DIVMTQTPLSLSVTPGQPASISCRSSQSLVHSNGNTFLHWYLQKPGQSPQLLIYTVSNRFSGVPDRFSGSGSGTDFTLKISRVEAEDVGVYFCSQTTHVPWTFGGGTKVEIKRTVAAPSVFIFPPSDRKLKSGTASVVCLLNNFYPREAKVQWKVDNALQSGNSQESVTEQDSKDSTYSLSSTLTLSKADYEKHKVYACEVTHQGLSSPVTKSFNRGEC
light 2: QVQLVQSGAEVKKPGASVKVSCKASGYTLTDYNMDWVRQAPGQGLEWIGDIYPNTGGTIYNQKFKGRVTMTIDTSTSTVYMELSSLRSEDTAVYYCTRFRGIHYAMDYWGQGTTVTVSSASVAAPSVFIFPPSDEQLKSGTASVVCLLNNFYPREAKVQWKVDNALQSGNSQESVTEQDSKDSTYSLSSTLTLSKADYEKHKVYACEVTHQGLSSPVTKSFNRGEC
notes: Human IgG1 Fc with L234A, L235A, P329G; also called RO7300490 analog
In assay [1], B1 came in with a dissociation constant (Kd) of 4.9 nM, a koff of 0.00555 s⁻¹ and an association rate constant (kon) of 1.13e+06 M⁻¹ s⁻¹. For the same molecule, in assay [2], the Kd came out at 0.265 nM, the dissociation rate constant (koff) amounted to 4.83e-05 s⁻¹ and the on-rate constant (kon) turned out to be 182000 M⁻¹ s⁻¹. In assay [3], the “fold reduction in potency of IL12p40 secretion with 120 ng/mL soluble FAP” value was 14.2 fold and the “fold reduction in potency of IL12p40 secretion with 480 ng/mL soluble FAP” value was 70.9 fold. Moreover, in assay [4], binding was characterised by a dissociation constant (Kd) of 2550 nM. Further, in assay [5], the “IL12p40 release, human DC + HFF1 co-culture, EC50, soluble FAP 120 ng/mL” value amounted to 1.14 nM and the “IL12p40 release, human DC + HFF1 co-culture, EC50, soluble FAP 480 ng/mL” value came to 516 nM. Besides, the “IL12p40 release, human DC + HFF1 co-culture, EC50, soluble FAP 0 ng/mL” value in assay [6] amounted to 0.09 nM.
